B1: CPEB3 Ribozyme (parent)
chain: UAACAGGGGGCCACAGCAGAAGCGUUCACGUCGCAGCCCCUGUCAGAUUCUGGUGAAUCUGCGAAUUCUGCUGUAUAUCUC

Variants of: B1
Experiment: self-cleavage, relative activity (ratio to wild type); higher = more cleavage; in vitro, sequencing
Method in brief: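 After error-prone PCR and barcoding, CPEB3 ribozyme mutant libraries were transcribed with T7 RNA polymerase at 37°C for 5 hours, then given 15 min with DNase I before an EDTA stop, and they cleaved during both steps. Reverse transcription with template switching preceded Illumina sequencing. Relative activity divides a variant's cleaved/total read fraction by the unmutated ribozyme's. At least 5 reads were required per variant, and three batches were averaged.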

Which self-cleavage does the source give for UAACAGGGGGCCACAGCAGAAGCGUUCACGUCGCAGCCCCUGUCAGAUUCUGGAGAAUCUGAGAAUUCUGCUGUAUAUCUC [U54A C62A] here?
The self-cleavage was 0.32.

For UAACAGGGGGCCACAGCAGAAGCGUUCACGUCGCAGCCCCUGUCAGAUUCUGUUGAAUCUGCGAAUUCCGCUGUAUAUCUC [G53U U69C], which self-cleavage is on record?
Its self-cleavage is 0.59.

With UAACAGGGGGCCACAGCAGAAGCGUUCACGUCGCAGCCCCUGUCAGAUUCUGGAGAAUCUGCGAAUUCUCCUGUAUAUCUC [U54A G70C] as the variant, how does the self-cleavage read?
The self-cleavage was 0.39.

With UAACAGGGGGCCACAGCAGAAGCGUUCACGUCGCAGCCCCUGUCAGAUUCUGUUGAAUCUGCGGAUUCUGCUGUAUAUCUC [G53U A64G] as the variant, how does the self-cleavage read?
Its self-cleavage is 0.97.

Which self-cleavage does the source give for UAACAGGGGGCCACAGCAGAAGCGUUCACGUCGCAGCCCCUGUCAGAUUCUGGAGAAUCCGCGAAUUCUGCUGUAUAUCUC [U54A U60C] here?
The self-cleavage was 0.67.

Which self-cleavage does the source give for UAACAGGGGGCCACAGCAGAAGCGUUCACGUCGCAGCCCCUGUCAGAUUCUGGAGAAUCAGCGAAUUCUGCUGUAUAUCUC [U54A U60A] here?
The self-cleavage was 0.68.

With UAACAGGGGGCCACAGCAGAAGCGUUCACGUCGCAGCCCCUGUCAGAUUCUGGAGAAUCGGCGAAUUCUGCUGUAUAUCUC [U54A U60G] as the variant, how does the self-cleavage read?
Its self-cleavage is 0.65.

Which self-cleavage does the source give for UAACAGGGGGCCACAGCAGAAGCGUUCACGUCGCAGCCCCUGUCAGAUUCUGUUGAAUCUGCGAGUUCUGCUGUAUAUCUC [G53U A65G] here?
The self-cleavage was 0.61.

Which self-cleavage does the source give for UAACAGGGGGCCACAGCAGAAGCGUUCACGUCGCAGCCCCUGUCAGAUUCUGUUGAAUCUGCGAUUUCUGCUGUAUAUCUC [G53U A65U] here?
The self-cleavage was 0.25.

Which self-cleavage does the source give for UAACAGGGGGCCACAGCAGAAGCGUUCACGUCGCAGCCCCUGUCAGAUUCUGGAGAAUCUGCGAAUUCUGCUGUAUAUGUC [U54A C79G] here?
The self-cleavage was 1.23.

For UAACAGGGGGCCACAGCAGAAGCGUUCACGUCGCAGCCCCUGUCAGAUUCUGGAGAAUCUGCGAAUUCUGCUGUAUAUAUC [U54A C79A], which self-cleavage is on record?
The self-cleavage was 1.23.

With UAACAGGGGGCCACAGCAGAAGCGUUCACGUCGCAGCCCCUGUCAGAUUCUGGAGAAUCUGCGAAUUCUGCUGUAUAUUUC [U54A C79U] as the variant, how does the self-cleavage read?
The self-cleavage was 1.16.

Which self-cleavage does the source give for UAACAGGGGGCCACAGCAGAAGCGUUCACGUCGCAGCCCCUGUCAGAUUCUGGAGAAUCUGCGGAUUCUGCUGUAUAUCUC [U54A A64G] here?
Its self-cleavage is 0.92.

For UAACAGGGGGCCACAGCAGAAGCGUUCACGUCGCAGCCCCUGUCAGAUUCUGGAGAAUCUGCGUAUUCUGCUGUAUAUCUC [U54A A64U], which self-cleavage is on record?
Its self-cleavage is 0.37.

For UAACAGGGGGCCACAGCAGAAGCGUUCACGUCGCAGCCCCUGUCAGAUUCUGGAGAAUCUGCGCAUUCUGCUGUAUAUCUC [U54A A64C], which self-cleavage is on record?
Its self-cleavage is 0.16.

Which self-cleavage does the source give for UAACAGGGGGCCACAGCAGAAGCGUUCACGUCGCAGCCCCUGUCAGAUUCUGGAGAAUCUGCGAAUUCUGAUGUAUAUCUC [U54A C71A] here?
Its self-cleavage is 0.42.

For UAACAGGGGGCCACAGCAGAAGCGUUCACGUCGCAGCCCCUGUCAGAUUCUGUUGAAUCUGCGAAUUCUGCUGUAUAUCUC [G53U], which self-cleavage is on record?
Its self-cleavage is 1.21.

With UAACAGGGGGCCACAGCAGAAGCGUUCACGUCGCAGCCCCUGUCAGAUUCUGUAGAAUCUGCGAAUUCUGCUGUAUAUCUC [G53U U54A] as the variant, how does the self-cleavage read?
The self-cleavage was 0.98.

For UAACAGGGGGCCACAGCAGAAGCGUUCACGUCGCAGCCCCUGUCAGAUUCUGUUGAACCUGCGAAUUCUGCUGUAUAUCUC [G53U U58C], which self-cleavage is on record?
The self-cleavage was 1.08.

With UAACAGGGGGCCACAGCAGAAGCGUUCACGUCGCAGCCCCUGUCAGAUUCUGGAGAAUCUGCGAAUCCUGCUGUAUAUCUC [U54A U67C] as the variant, how does the self-cleavage read?
The self-cleavage was 0.46.

With UAACAGGGGGCCACAGCAGAAGCGUUCACGUCGCAGCCCCUGUCAGAUUCUGGAGAAUCUGCGAAUGCUGCUGUAUAUCUC [U54A U67G] as the variant, how does the self-cleavage read?
Its self-cleavage is 0.36.

With UAACAGGGGGCCACAGCAGAAGCGUUCACGUCGCAGCCCCUGUCAGAUUCUGGAGAAUCUGCGAAUACUGCUGUAUAUCUC [U54A U67A] as the variant, how does the self-cleavage read?
The self-cleavage was 0.67.

With UAACAGGGGGCCACAGCAGAAGCGUUCACGUCGCAGCCCCUGUCAGAUUCUGGAGAAUCUGCGAAUUCAGCUGUAUAUCUC [U54A U69A] as the variant, how does the self-cleavage read?
Its self-cleavage is 0.86.

With UAACAGGGGGCCACAGCAGAAGCGUUCACGUCGCAGCCCCUGUCAGAUUCUGUUGAAUCUGCGAAUCCUGCUGUAUAUCUC [G53U U67C] as the variant, how does the self-cleavage read?
The self-cleavage was 0.21.

Which self-cleavage does the source give for UAACAGGGGGCCACAGCAGAAGCGUUCACGUCGCAGCCCCUGUCAGAUUCUGGAGAAUCUGCGAAUUCUGCUGUAUUUCUC [U54A A77U] here?
The self-cleavage was 1.23.

Which self-cleavage does the source give for UAACAGGGGGCCACAGCAGAAGCGUUCACGUCGCAGCCCCUGUCAGAUUCUGGAGAAUCUGCGAAUUCUGCUGUAUGUCUC [U54A A77G] here?
Its self-cleavage is 1.06.

Which self-cleavage does the source give for UAACAGGGGGCCACAGCAGAAGCGUUCACGUCGCAGCCCCUGUCAGAUUCUGGAGAAUCUGCGAAUUCUGCUGUAUCUCUC [U54A A77C] here?
Its self-cleavage is 1.12.

Which self-cleavage does the source give for UAACAGGGGGCCACAGCAGAAGCGUUCACGUCGCAGCCCCUGUCAGAUUCUGUUGAAUCUGCGAAUUCUGCUGCAUAUCUC [G53U U74C] here?
The self-cleavage was 1.18.

Which self-cleavage does the source give for UAACAGGGGGCCACAGCAGAAGCGUUCACGUCGCAGCCCCUGUCAGAUUCUGUUGAAUCUGCGAAUUCUGCUGAAUAUCUC [G53U U74A] here?
The self-cleavage was 1.2.

Which self-cleavage does the source give for UAACAGGGGGCCACAGCAGAAGCGUUCACGUCGCAGCCCCUGUCAGAUUCUGGAGAAUCUGCGAAUUCUGCUGUCUAUCUC [U54A A75C] here?
Its self-cleavage is 1.19.

For UAACAGGGGGCCACAGCAGAAGCGUUCACGUCGCAGCCCCUGUCAGAUUCUGGAGAAUCUGCGAAUUCUGCUGUUUAUCUC [U54A A75U], which self-cleavage is on record?
The self-cleavage was 1.21.

Which self-cleavage does the source give for UAACAGGGGGCCACAGCAGAAGCGUUCACGUCGCAGCCCCUGUCAGAUUCUGGAGAAUCUGCGAAUUCUGCUGUGUAUCUC [U54A A75G] here?
The self-cleavage was 1.

For UAACAGGGGGCCACAGCAGAAGCGUUCACGUCGCAGCCCCUGUCAGAUUCUGUUGAAUCUGCGAAUUCUGCUGUAUAUCUG [G53U C81G], which self-cleavage is on record?
The self-cleavage was 1.24.

For UAACAGGGGGCCACAGCAGAAGCGUUCACGUCGCAGCCCCUGUCAGAUUCUGGAGAAUCUGCGAAUUCUGCUGUAUAUCUC [U54A], which self-cleavage is on record?
Its self-cleavage is 1.09.
